T1: MERS-CoV (SARS-CoV-2) Spike Protein (ECD, aa 1-1297, His Tag) (Sino 40069-[change]) (MERS-CoV, UniProt K9N5Q8 18-1297)
T1 sequence: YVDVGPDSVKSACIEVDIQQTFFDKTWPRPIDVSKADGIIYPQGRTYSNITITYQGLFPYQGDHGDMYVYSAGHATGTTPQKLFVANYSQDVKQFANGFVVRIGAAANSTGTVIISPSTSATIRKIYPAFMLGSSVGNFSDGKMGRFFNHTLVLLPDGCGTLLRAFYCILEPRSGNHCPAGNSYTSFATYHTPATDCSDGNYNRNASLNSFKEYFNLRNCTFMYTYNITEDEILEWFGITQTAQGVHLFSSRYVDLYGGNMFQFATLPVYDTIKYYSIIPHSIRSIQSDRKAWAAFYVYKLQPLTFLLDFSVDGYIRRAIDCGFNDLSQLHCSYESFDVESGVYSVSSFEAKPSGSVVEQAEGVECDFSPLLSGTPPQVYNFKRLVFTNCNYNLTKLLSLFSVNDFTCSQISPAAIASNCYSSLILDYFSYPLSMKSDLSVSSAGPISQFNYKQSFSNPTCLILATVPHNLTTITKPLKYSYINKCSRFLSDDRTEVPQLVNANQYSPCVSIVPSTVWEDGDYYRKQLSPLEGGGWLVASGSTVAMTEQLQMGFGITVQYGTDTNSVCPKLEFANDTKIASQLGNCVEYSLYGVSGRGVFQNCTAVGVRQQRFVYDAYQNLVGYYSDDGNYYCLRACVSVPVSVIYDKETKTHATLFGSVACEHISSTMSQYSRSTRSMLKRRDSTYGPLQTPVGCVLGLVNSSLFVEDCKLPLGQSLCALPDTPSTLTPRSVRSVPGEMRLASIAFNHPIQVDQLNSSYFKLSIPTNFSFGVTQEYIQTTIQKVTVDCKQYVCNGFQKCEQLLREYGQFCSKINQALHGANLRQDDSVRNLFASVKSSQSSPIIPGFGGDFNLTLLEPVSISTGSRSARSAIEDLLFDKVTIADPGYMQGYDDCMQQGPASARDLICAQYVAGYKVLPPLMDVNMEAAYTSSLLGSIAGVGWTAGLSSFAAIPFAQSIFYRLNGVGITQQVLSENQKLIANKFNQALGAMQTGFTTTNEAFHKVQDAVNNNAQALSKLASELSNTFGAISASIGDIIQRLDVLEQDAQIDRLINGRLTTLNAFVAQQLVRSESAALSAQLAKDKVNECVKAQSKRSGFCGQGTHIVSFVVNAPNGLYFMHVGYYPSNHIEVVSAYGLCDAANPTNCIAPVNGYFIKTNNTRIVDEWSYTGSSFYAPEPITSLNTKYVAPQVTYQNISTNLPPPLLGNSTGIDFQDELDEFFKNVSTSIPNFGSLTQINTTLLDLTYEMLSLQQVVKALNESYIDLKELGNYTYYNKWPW

T2: MERS-CoV (SARS-CoV-2) Spike Protein S2 (aa 726-1296, His Tag) (Sino 40070-[change]) (MERS-CoV, UniProt K9N5Q8 726-1296)
T2 sequence: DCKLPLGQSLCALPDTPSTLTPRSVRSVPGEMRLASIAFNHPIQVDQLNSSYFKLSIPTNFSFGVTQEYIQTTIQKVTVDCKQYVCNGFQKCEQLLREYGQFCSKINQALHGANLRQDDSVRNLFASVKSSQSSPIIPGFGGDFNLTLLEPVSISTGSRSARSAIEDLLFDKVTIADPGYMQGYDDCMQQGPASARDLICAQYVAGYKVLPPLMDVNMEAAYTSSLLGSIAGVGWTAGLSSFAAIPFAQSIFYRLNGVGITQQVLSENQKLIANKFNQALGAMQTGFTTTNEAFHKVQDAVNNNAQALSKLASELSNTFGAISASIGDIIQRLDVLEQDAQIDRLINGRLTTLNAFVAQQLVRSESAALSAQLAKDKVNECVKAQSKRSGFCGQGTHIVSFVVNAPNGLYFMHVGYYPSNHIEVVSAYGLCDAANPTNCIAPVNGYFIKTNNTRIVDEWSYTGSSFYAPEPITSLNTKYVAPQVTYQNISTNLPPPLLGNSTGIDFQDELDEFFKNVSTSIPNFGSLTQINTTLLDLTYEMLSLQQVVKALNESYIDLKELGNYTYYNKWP

T3: MERS-CoV (SARS-CoV-2) Spike Protein S2 (aa 726-1296, His Tag) (Sino 40070-[change]) (MERS-CoV, UniProt K9N5Q8 726-1296)
T3 sequence: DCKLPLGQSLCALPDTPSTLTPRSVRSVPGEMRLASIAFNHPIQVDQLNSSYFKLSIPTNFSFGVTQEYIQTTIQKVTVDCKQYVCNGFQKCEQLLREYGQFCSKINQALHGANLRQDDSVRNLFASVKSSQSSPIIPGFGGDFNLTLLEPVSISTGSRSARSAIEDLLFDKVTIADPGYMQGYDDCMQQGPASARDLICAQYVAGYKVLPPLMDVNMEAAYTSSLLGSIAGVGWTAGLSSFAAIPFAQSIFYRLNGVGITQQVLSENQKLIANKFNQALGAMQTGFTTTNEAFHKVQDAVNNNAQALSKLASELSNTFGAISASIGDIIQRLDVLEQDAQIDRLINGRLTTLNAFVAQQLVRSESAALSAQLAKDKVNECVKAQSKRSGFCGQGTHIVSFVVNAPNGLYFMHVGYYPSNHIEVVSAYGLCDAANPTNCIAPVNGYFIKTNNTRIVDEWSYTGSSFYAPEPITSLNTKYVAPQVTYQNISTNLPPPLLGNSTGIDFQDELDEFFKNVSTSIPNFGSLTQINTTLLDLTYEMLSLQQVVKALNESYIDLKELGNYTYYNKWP

T4: MERS-CoV (SARS-CoV-2) Spike Protein (ECD, aa 1-1297, His Tag) (Sino 40069-[change]) (MERS-CoV, UniProt K9N5Q8 18-1297)
T4 sequence: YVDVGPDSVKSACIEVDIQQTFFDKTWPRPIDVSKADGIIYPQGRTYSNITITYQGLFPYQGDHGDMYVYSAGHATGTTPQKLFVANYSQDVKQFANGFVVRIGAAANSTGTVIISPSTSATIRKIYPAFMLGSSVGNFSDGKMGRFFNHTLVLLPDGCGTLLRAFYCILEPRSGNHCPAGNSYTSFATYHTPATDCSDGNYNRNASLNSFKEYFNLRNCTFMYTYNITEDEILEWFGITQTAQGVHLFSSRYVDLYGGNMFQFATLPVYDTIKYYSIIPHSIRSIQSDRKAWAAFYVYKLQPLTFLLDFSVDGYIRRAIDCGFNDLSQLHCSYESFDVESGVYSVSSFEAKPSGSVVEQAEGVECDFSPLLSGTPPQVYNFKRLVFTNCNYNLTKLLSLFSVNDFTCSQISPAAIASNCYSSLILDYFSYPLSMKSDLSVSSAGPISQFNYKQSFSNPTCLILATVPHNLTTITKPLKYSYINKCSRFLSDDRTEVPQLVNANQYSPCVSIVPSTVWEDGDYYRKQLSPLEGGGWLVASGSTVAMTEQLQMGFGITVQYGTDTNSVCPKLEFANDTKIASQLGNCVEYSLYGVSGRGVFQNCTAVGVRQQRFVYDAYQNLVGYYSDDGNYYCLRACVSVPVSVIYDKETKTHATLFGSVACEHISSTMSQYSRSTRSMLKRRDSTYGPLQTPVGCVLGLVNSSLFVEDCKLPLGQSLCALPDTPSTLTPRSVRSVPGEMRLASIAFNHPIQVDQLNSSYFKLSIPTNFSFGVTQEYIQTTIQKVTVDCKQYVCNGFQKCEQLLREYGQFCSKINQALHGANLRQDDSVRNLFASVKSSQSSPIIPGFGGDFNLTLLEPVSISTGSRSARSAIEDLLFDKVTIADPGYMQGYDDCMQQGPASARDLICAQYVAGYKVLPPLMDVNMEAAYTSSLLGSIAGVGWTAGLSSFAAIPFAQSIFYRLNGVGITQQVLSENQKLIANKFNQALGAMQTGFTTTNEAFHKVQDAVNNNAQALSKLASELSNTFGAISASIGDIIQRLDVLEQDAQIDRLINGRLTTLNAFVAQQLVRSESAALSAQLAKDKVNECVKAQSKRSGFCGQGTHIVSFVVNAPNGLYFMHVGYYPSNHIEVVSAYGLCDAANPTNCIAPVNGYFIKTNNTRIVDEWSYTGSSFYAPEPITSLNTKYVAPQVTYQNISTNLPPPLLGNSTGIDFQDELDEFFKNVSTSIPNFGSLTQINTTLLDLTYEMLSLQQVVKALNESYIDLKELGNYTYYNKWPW


Columns and labels:
[1] = target: Human SARS Coronavirus Spike S1 Subunit Protein (His Tag) (Sino 40150-V08B1) (Human SARS Coronavirus, UniProt P59594 14-667); test: Luminex bead binding, antigen on microspheres, antibody supernatant
[2] = target: T1, MERS-CoV (SARS-CoV-2) Spike Protein …; test: as above
[3] = target: T2, MERS-CoV (SARS-CoV-2) Spike Protein S2 …; test: as above
[4] = target: T3, MERS-CoV (SARS-CoV-2) Spike Protein S2 …; test: Luminex bead assay, supernatant on antigen microspheres
[5] = target: T4, MERS-CoV (SARS-CoV-2) Spike Protein …; test: as above

Binder | MFI [1] [MFI] | MFI [2] [MFI] | MFI [3] [MFI] | Binding signal (MFI) [4] [MFI] | Binding signal (MFI) [5] [MFI]
mAb10967 (antibody, V domains shown) VH: EVQLVESGGGLVQPGGSLRLSCAASGFTVSSNYMSWVRQAPGKGLEWVSVIYPGGSTFYADSVKGRFTISRDNSKNTLYLQMNSLRAEDTAVYYCARDQRDFAWGQGTLVTVSS VL: DIQMTQSPSSLSASVGDRVTITCQASQDISNYLNWYQQKPGKAPKLLIYDASNLETGVPSRFSGSGSGTDFTFTISGLQPEDIATYYCQQYDNLPPTFGQGTRLEIKR | 21 | – | – | – | –
mAb10954 (antibody, V domains shown) VH: EVQLVESGGGLVQPGGSLRLSCAASGITVSSNYMSWVRQAPGKGLEWVSLIYSGGSTYYADSVKGRFTISRDNSKNTLYLQMNSLRVEDTAVYYCARDHGMAAAGYNYWGQGTLVTVSS VL: DIQMTQSPSSLSASVGDRVTITCQASQDINKYLNWYQQKPGKAPKLLIYDASNLETGVPSRFSGSGSGTDFTFTINSLQPEDFATYFCQQYDNLPPAFGQGTKVEIKR | 15 | – | – | – | –
mAb10955 (antibody, V domains shown) VH: EVQLVESGGGLVQPGGSLRVSCAASGFTVSRNYMSWVRQAPGKGLEWVSVIYSGGSTFYADSVKGRFTISRDNSKNTLYLQMNSLRAEDTAIYYCARYIPRFDPWGQGTLVTVSS VL: DIQMTQSPSSLSASVGDRVTITCQASQDISNYLNWFQQKPGRAPKLLIYDASNLETGVPSRFSGSGSGTDFTFTISSLQPEDIATYYCQQYDNLPITFGQGTRLEIKR | 14 | 15 | 18 | – | –
mAb10956 (antibody, V domains shown) VH: EVQLVESGGGLVQPGGSLRLSCAASGLTVSSNYMSWVRQAPGKGLEWVSVIYSGGSTFYADSVKGRFTISRDNSKNTLYLQMNSLRAEDTAVYYCARDLIKYGMDVWGQGTTVTVSS VL: not shown | 16 | 15 | 16 | – | –
mAb10957 (antibody, V domains shown) VH: EVQLVESGGGLVQPGGSLRLSCAASGVTVSSNYMSWVRQAPGKGLEWVSVIYSGGSTFYADSVKGRFTISRDNSKNTLFLQMNSLRIEDTAVYYCARDLGPYGMDVWGQGTTVTVSS VL: DIQLTQSPSFLSASVGDRVTITCRASQGISSYLAWYQQKPGKAPKLLIYAASTLQSGVPSRFSGSGSGTQFILTISSLQPEDFATYYCQQLNSYPGFTFGPGTKVDIKR | 16 | 15 | 18 | – | –
mAb10915 (antibody, V domains shown) VH: EVQLVESGGGLVQPGGSLRLSCAASGFTVSSNYMNWVRQAPGKGLEWVSVIYSGGSTFYADSVKGRFTISRHNSKNTLYLQMNSLRPEDTAVYYCARDLGGYFDYWGQGTLVTVSS VL: not shown | – | – | – | 23 | –
mAb10933 (antibody, V domains shown) VH: QVQLVESGGGLVKPGGSLRLSCAASGFTFSDYYMSWIRQAPGKGLEWVSYITYSGSTIYYADSVKGRFTISRDNAKSSLYLQMNSLRAEDTAVYYCARDRGTTMVPFDYWGQGTLVTVSS VL: DIQMTQSPSSLSASVGDRVTITCQASQDITNYLNWYQQKPGKAPKLLIYAASNLETGVPSRFSGSGSGTDFTFTISGLQPEDIATYYCQQYDNLPLTFGGGTKVEIKR | – | – | – | 19 | –
mAb10934 (antibody, V domains shown) VH: not shown VL: DIQMTQSPSSLSASVGDRVTITCQASQDIWNYINWYQQKPGKAPKLLIYDASNLKTGVPSRFSGSGSGTDFTFTISSLQPEDIATYYCQQHDDLPPTFGQGTKVEIKR | – | – | – | – | 15
